In the DeepSol protein solubility set:

test: soluble on expression in E. coli; label from the status in PepcDB or PDB records

Sequence | soluble on expression in E. coli
MEESPTKTFKCPKCWNKFENKPKLITHVDLECKHKYFRCELCDFKSTQKTGLTSHYHGHIRQSNVIHCPYCKKKKTFKSRNNLMVHVHHYHPTHINEMKQANLESAKEEKMKTMLEKQAKEAHEFEISQPAVFEKDFASYDLPMFSQCPPMNGIPVSTPIEYPYSQNPYQDHTPFDSYPYPNFHPQQLPLPTFENNLPDIATYFDL | not soluble
MSLVLIQGAGIAGLALAREFTKAGIDWLLVERASEIRPIGTGITLASNALTALSSTLDLDRLFRRGMPLAGINVYAHDGSMLMSMPSSLGGNSRGGLALQRHELHAALLEGLDESRIRVGVSIVQILDGLDHERVTLSDGTVHDCSLVVGADGIRSSVRRYVWPEATLRHSGETCWRLVVPHRLEDAELAGEVWGHGKRLGFIQISPREMYVYATLKVRREEPEDEEGFVTPQRLAAHYADFDGIGASIARLIPSATTLVHNDLEELAGASWCRGRVVLIGDAAHAMTPNLGQGAAMALEDAFLLARLWCLAPRAETLILFQQQREARIEFIRKQSWIVGRLGQWESPWSVWLRNTLVRLVPNASRRRLHQRLFTGVGEMAAQEGHHHHHH | not soluble
MRVAVVGATGAVGREILKVLEARNFPLSELRLYASPRSAGVRLAFRGEEIPVEPLPEGPLPVDLVLASAGGGISRAKALVWAEGGALVVDNSSAWRYEPWVPLVVPEVNREKIFQHRGIIANPNCTTAILAMALWPLHRAFQAKRVIVATYQAASGAGAKAMEELLTETHRFLHGEAPKAEAFAHPLPFNVIPHIDAFQENGYTREEMKVVWETHKIFGDDTIRISATAVRVPTLRAHAEAVSVEFARPVTPEAAREVLKEAPGVEVVDEPEAKRYPMPLTASGKWDVEVGRIRKSLAFENGLDFFVVGDQLLKGAALNAVQIAEEWLKGA | soluble
MGSSHHHHHHGGTGENLYFQGGSGSSCRGIVVAGVTNQARTQMAEAFLRAFTGGRVFVCSGGVHHLGTVHPLAVVTMAEMGIDVSRQSSSSLAGVRRQRETYDVYVSVDAPYTERTSDRYQRRYTDTQAAQQSSMGAAGLSAPCASSTSDFCDPLLASATPAHWTVSQDTTDGRQSWTLWSPRNPAIYHERSTRKLQDHLYEGEPLFMRVRPHGLRKACRVQRRWEVPELTQRFALETEAEQKARFVQARDLLGSLALVLVRDLEREYGETMLDEAAVAAYEKVAATEC | not soluble
GAQLLGVHPKGESQRASRGGGQATKMSSAVGPRGPRPPTVPPPMQELPDLSHLTEEERNIIMAVMDRQKEEEEKEEAMLKCVVRDMAKPAACKTPRNAENQPHQPSPRLHQQFESYKEQVRKIGEEARRYQGEHKDDAPTCGICHKTKFADGCGHLCSYCRTKFCARCGGRVSLRSNNEDKVVMWVCNLCRKQQEILTKSGAWFFGSGPQQTSQDGTLSDTATGAGSEVPREKKARLQERSRSQTPLSTAAASSQDAAPPSAPPDRSKGAEPSQQALGPEQKQASSRSRSEPPRERKKTPGLSEQNGKGALKSERKRVPKTSAQPVEGAVEERERKERRESRRLEKGRSQDYPDTPEKRDEGKAADEEKQRKEEDYQTRYRSDPNLARYPVKPPPEEQQMRMHARVSRARHERRHSDVALPRTEAGAALPEGKAGKRAPAAARASPPDSPRAYSAERTAETRAPGAKQLTNHSPPAPRHGPVPAEAPELKAQEPLRKQSRLDPSSAVLMLRNDSLSSDQSESVRPSPPKPHRSKRGGKKRQMSVSSSEEEGVSTPEYTSCEDVELESESVSEKGDLDYYWLDPATWHSRETSPISSHPVTWQPSKEGDRLIGRVILNKRTTMPKDSGALLGLKVVGGKMTDLGRLGAFITKVKKGSLADVVGHLRAGDEVLEWNGKPLPGATNEEVYNIILESKSEPQVEIIVSRPIGDIPRIPESSHPPLESSSSSFESQKMERPSISVISPTSPGALKDAPQVLPGQLSVKLWYDKVGHQLIVNVLQATDLPARVDGRPRNPYVKMYFLPDRSDKSKRRTKTVKKILEPKWNQTFVYSHVHRRDFRERMLEITVWDQPRVQEEESEFLGEILIELETALLDDEPHWYKLQTHDESSLPLPQPSPFMPRRHIHGESSSKKLQRSQRISDSDISDYEVDDGIGVVPPVGYRSSARESKSTTLTVPEQQRTTHHRSRSVSPHRGNDQGKPRSRLPNVPLQRSLDEIHPTRRSRSPTRHHDASRSPVDHRTRDVDSQYLSEQDSELLMLPRAKRGRSAECLHTTR | soluble
MGSDKIHHHHHHMTDEGALFYEHSRRALSEIQNAAALLDQRKINATGRLRMSVPVLFGQLFAAPLMVKFAQQHADLQLEISFNDRNVDLIEEGFDLCIRIGALPDTTQLVAKPIGEHRMLLCASPDYLNKAGPVEHIEDLDQHATIADPHFGQMQKWRLQKENDEPLFIKPKAKLLLNDLQAIKNAALAGAGIAWLPDWLIQNELQDGKLVQVLDAMSSTAFPIHLVWPTLPFMPLKTRLAIDYLAQHLPPELNK | not soluble
MSLDRNLYEDTFVVFDVETTGLSAVYDTIIELAAVKIKGGEIVDRFESFANPHHALSQTTIDLTGITDDMVNDAPEVADVLKDFHTWMGNDILVAHNASFDMGFLNQGFQRIDYEKASNPVVDTLELARFLLPELRNHRLNTLCKHLDIELTQHHRAIYDAEATGYLLWKLVQRLVEKEISNHEGHHHHHH | soluble
DNKELQKLTEDISETYFKKPFRHQALFNDRLKTTGGRYLLTSHNIELNRKYLIEHGREELIGIIKHELCHYHLHLEGKGYKHRDRDFRMLLQQVNAPRFCTPLKKKAENKKTYMYICTTCGQQYIKKRAMNPDRYRCGKCRGKIKRI | not soluble
MASETSQFGIETDSITLQRYVLQEQRKHADASGELTALLTNMLVAIKAIASATQKAGLAKLYGIAGATNVQGEEVKKLDVLSNELMINMLKSSYTTCLLVSEENDELIEVEEQRRGKYIVTFDPLDGSSNIDCLVSIGTIFGIYKKRGDGPATVDDVLKPGKEMVAAGYALYGSATMVVLSTGDGVNGFTLDPSIGEFILTHPNMKCKEKGSIYSLNEGYAQTWSKGFAEYIRTRKYPEAGKKAMGQRYVGSMVADVHRTILNGGIFLYPPTVSAPNGKLRLLYECNPMAYIIEQAGGLATTGKERILDIQPTQIHQRAPIILGSKLDVEEALEYLAKYDN | not soluble
MASFARRAMSLAQIPSARISSGAASIGQRRCLAGAADHHGSTKVDFWKQPTNPGNWKEEHFVLISLSGWGLLFYSGYKLATGGKKEYTMSFIVTRKTFYGETSHSHALCFPF | not soluble
MGSDKIHHHHHHMEANNGKMERIQEMLRMFGLSSYEAQGFAALVYHGVANADTIASTANIPRTSAYKVMESLVRKGLAKATEGRPRMFKPAKMEEIRDYYEEKLQQLFRDLKELEDNAPSRGEPQLIYTINGSQKVMEKIEEMINLTEHEIMISTPKIIEIRKQMKKPIENAIKRGVRVVFVIPPNKRVPANVIVYRRDGLIATDIVSDQIRALIAGPDLETCGYSDNPMLSMHVYQFINILINKPEIQG | not soluble
IQQFNYGVRLVMSDNMQKILEYPNKTLSLGEKYYTGKTIGEIWGYKTIGIAQTQEEMDKHLANGGKPNWGSAWGAGDIMYANIDGKDGVNSGANTVNDHGDLKIIGNSTPRYNFGLTLDGSWKGLDFSLFIQGVMKRDYMLDGPYFWGANGGMWQSCVFKEHLDYWRPEGDPLGANTNAYYPKPYFSSNKNQKTQSGYLQNAAYCRLKNAQIGYTLPKAWTKKAAMESVRVYVSGDNLLTISGISDIFDPETLGGDWGPGKLYPLQRTISIGLNVNF | not soluble
MDNQISVPPALTGNYAFFFDLDGTLADIQPHPDQVVIPDSTLQALNALAQQQGGAVALISGRSMAELDALTHPWRLPLAGVHGAERRDINGKTYIVSLPTALRDEIAAELTSALEALPGCELESKEMAFALHYRQAPQQQSAVLELAQRIVQRYPLLALQLGKCVVEIKPRGVNKGEAITAFMQEAPFAGREPVFVGDDLTDEAGFSVVNQLQGMSVKVGAGETQAHWRLADAAAVRTWLQHLAYDAQTERRDDHESFSRSL | not soluble
MSLKHSKIRIAHISDIHIGSRLDKLPQKMVNKIIEENPDLVVITGDLIDSHNVISTDLASFNAFKERNIPIYYTIGNHDIMAGEEYVSSILEYYGIIYLKNQVTQITIGDETIQLVGIDDVQSITKYNEIFNSITPSIHNNIYTILLHHRPQGYKTSVQSGQIDLQLAGHTHDGQVFPFNYIVPLFHSKSYGMYHIKDEGHHHHHH | not soluble
MSAANPTRDDFASLLEESFTTGHSGEGQVVKGTITAIEKDMAIIDVGLKVEGRVPLKEFGVKGKDTTLKVGDTVEVYVERIENALGEAMLSREKARREESWVRLEEKFTKGERVEGVIFNQVKGGFTVDLDGAVAFLPRSQVDIRPIRDVSPLMHNPQPFEILKMDRRRGNIVVSRRTVLEESRAEQRSEIVQNLEEGQVVEGVVKNITDYGAFVDLGGIDGLLHVTDMAWRRVNHPTEILNIGQTVKVQIIRINQETHRISLGMKQLESDPWSEIGTKFPIGKKIKGTVTNITDYGAFVELEPGIEGLIHVSEMSWTKKNVHPGKILSTTQEVDVVVLEVDPAKRRISLGLKQTLENPWEAFARNHPVGSQVEGEVKNKTEFGLFIGLEGDVDGMVHLSDLDWTRPGEQVIEEYNRGDMVKAQVLDVDIEKERISLGIKQLARDTVGEAATSGELRKNAVVTCEVIGVKDGGLEVRLVDSGIETFIKRSDLSRDRDEQRPERFTVGQKVDARVIAFDKKTRKLQVSIKALEIAEEKEAVAQYGSTDSGASLGDILGAALKKQGNLEHHHHHH | soluble
MMTYEYILVRYGEMTTKGKNRSKFVSTLKDNVKFKLKKFPNIKIDATHDRMYIQLNGEDHEAVSERLKDVFGIHKFNLAMKVPSELEDIKKGALAAFLQVKGDVKTFKITVHRSYKHFPMRTMELLPEIGGHILENTEDITVDVHNPDVNVRVEIRSGYSYIMCDERMGAGGLPVGVGGKVMVLLSGGIDSPVAAYLTMKRGVSVEAVHFHSPPFTSERAKQKVIDLAQELTKYCKRVTLHLVPFTEVQKTINKEIPSSYSMTVMRRMMMRITERIAEERNALAITTGESLGQVASQTLDSMHTINEVTNYPVIRPLITMDKLEIIKIAEEIGTYDISIRPYEDCCTVFTPASPATKPKREKANRFEAKYDFTPLIDEAVANKETMVLQTVEVVAEEEKFEELF | not soluble
RTYGDGTKPQTDRVVGGLVVEYDITENIMVSAHYDRTKDEGSVDSGAYIVDGKPVRGDKYIWDAQWSKIDNDVENYGIDINAQVTDNVNVKAGYNRQDFKRFDVESYPKFDNYDKDGVIRHKGNERTDNWVFDTAYLDVTTNFSLLGTENTFLVGANYLDYKYDRFMASHAGEDVAAGTTVTRPGTVRSKKYPRREHDTWGIYAQNMMTINDYWQVLAGARYDEKREDSLTENQVSPKLGVIFHPTSNGSIYVQYSESFMPQGEVSNGSRIYINDGEKLDAERGISYEIGTKWELFDQRLFVSGAVFDITLENISLDVESGKDASNQLLHKKTQGGEQVHKGAELMAQGFVTPELSLTASAMYLDAELKKAERFEGNRPADVPEFSASLWSSYRVQDNTNLNLGLIYEGDRYGDAANTFKKDGYARIDMGVSYKHKYDENLDIIARFNVENLFDTDYLAGGGSTNGNQEGASGVVVGEGRNYMATIQFKY | not soluble
MGSDKIHHHHHHMLASSDLPYRKMITWAGFYQDYYLVDINTGRKLPLLTQQPSDSDPSLSGDGKFVVYYQQGHVYLYDIAQGRRTNLTQSLKVSFADEDHDYPSNAPGYGFGPWLKDDAGILVYDKFDVWQFNTASKTGFALTAGQGRAQKIQYRLEGLVDNPDEPTTLAYNATVLLHGYSDKTKADGFYQATLGEAGVKTLMEGEYKLTVLGRSKDTDTLVFSKERFDLFPDLYTASYQAPQQAVKQTDLDKQRQAFNWSQAELVHWTNGDGKPLDGVLIKPTNYQAGERYPVLVYYYELMTDRLHAFPQMKVNHRPNFAWYVNNGYALFLPDIRFDIGYPGASSVQTLTSGVQKLIDMGVADANAIGLQGHSWSGYQTAFAITQTKMFKAAVAGAPVANMTSAYNGIRHGTGIARQFQYETGQSRIGASLFAAPQKYIENSPVFYADRIKTPLMIMFGDKDDAVPWEQGVEMYLAMRRAGKDVVFLQYEDEPHHLKKYPNKLDYSIRMMEYFDHYLKGKPAPAWLSQGEAYVEYKADDE | not soluble
